Assay: protease stability score; higher = more stable; yeast display proteolysis, trypsin and chymotrypsin;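 further: relative to predicted unfolded state with 0 unfolded-like and 1 meaning tenfold more protease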

| Sequence | protease stability score |
| --- | --- |
| DHEDELKMHLFEHLLEVLMTGDEHRKTRLLDPDARSHLDINGQKIDVMGWEEVTKLDRKLHEEIRFHEIHIREWELQGDKIFVVGETRIEINGVEFRTEVRIIVVVVNGRLKALFFHVH | 0.271 |
| DHEDELMERLARLFVHALQTGDEDLLRRYADPNTLINVNGKNLHGMEEESRFWKEIRIEHTEVERIHVQGNKSTVFVRVFFRIGDKHVHEHRILRLEFVDGRLRSVELERH | 1.69 |
| DHEDERETWAYHMLIHAFRTGDERIHEELLDPNVRTDVDGRTSHGWENVVKLVHHVLRLLGIDHIRLRRSDVVDGRVYMQGDIRVNGRTIETRVTIQVINGRVHSWSVRAE | 1.6 |
| DHEDERSRELTQILWKAWLTGDEELFHRLHDPDVRTEFDGREYHGWERFSELLNQFKNVRIRLRDYRIQGEKSKLDTQINIGDKRTRFHIEIYIIDGRLKNMRFEIE | 0.868 |
| DHEDHLSELAEHLIHHHWLTGDEHLLERMADPHAQIIIGDKHLHGREEVSRWLIEFMHKFKNMRLQIDHRHLIDGRLHVEVTINIGDKRLKVHRHSIKINGQWHLKSIIIE | 1.09 |
| DHEDKLHEEAFRRWLHVFKTGNEDLIRRLVDPHVKLEVDGQDFHGREELLRFLIERIRNLGIKVSDVKVKHVDIQGDKLDIDVRFIVEFNGRRTEINEWLIMEKIDGRWVVQSIHIR | 1.3 |
| DHEDRLAEEIARFIYHYWETGDEEEISDLFDPHVRVEININGKRIEKVGREHFYHWFHYWRERFKNLKINFKRLDPVNGKVHVETRVHQGDKERRMILEFDVVNGRIRVFRMEVHEN | 2.5 |
| DHEEDLSHEFLERLVSAWRTGDEHTWNRLADPNYKLEINGRHSVGREDSLRVIKDIRDKYKGLTIDDVTIKDVRIFDGVIRAKMVLQLNFNGVNIEEEVDIVIEKVDGRWFLKFEIVK | 0.653 |
| DHEEEEAERMARKIIHVLHTGDFDSWSHLADPNVRIEVGDKELHGREDLRKLFHLWDERFKNATIMVKDMRVQGNKVHLDHRLNIDGRTIHTTSEIIVINGRIHTVIIDEK | 2.29 |
| DHEEEEEHFLLEHMIEAIVTGDEDRLKELVDPHVRMDIDGVIIHGMDDIARWLKELRSIIRHFIPRDRKWQGNKIHIEGEVHGELRFDGRNQTDTFRIEIVSHKINGRWVIRSESFR | 1.18 |
| DHEEEEMRDRFKVLMRALLTGDFEELIRQMDPDYRLDINGRELIGREEYRKHLEKQLKHWRWKRIDVKHVETQGDKLHARINVHGDIDGRDINTETDWHLEVIDGRVRSEKISIR | 1.58 |
| DHEEEHALRIMQLLLWLDFTGDEETIHHLMDPHVRSVWIVGDKTITRHGRENVLKLFRDLGFKHVKDFRIRDVSAFDGRVDLKGRIDGQYGDKRETWDMDVELNVVDGRLKFFIIRFK | 1.69 |
| DHEEEHARSIIELLLYAFTTGNEKLLRRLIDPDAKVDIDGKSLHGMEDVSRHLREMIDHWRFRHIDVRRLEVQGEWIHITGRWDGDQGDKKVERDVEVRVLVVDGRVKHRSIHFR | 1.34 |
| DHEEEIALEVAEKILKLWLTGDEEIMMELFDPNTRVEINGKKVHGRENVMHILHHEWREIRLKDLRIKRHESVGNKVHLDGRVNGQINGRKHSIHVRIDIEVVDGRITNISIEHS | 1.44 |
| DHEEEIAQKAFTDWHHALLTGDWERHEEMFDPDVREDINGVDLHGRELIVKQVRRDLQDFGIKHFEIRIRRLSFQGNKVIFDGIIIFHVDGREERFHVRVLFRKINGVWYLHSRFLH | 1.06 |
| DHEEEKAVEIARLLLEAELTGDWKTFSHLADPHTRWIERIDGREDSRHGMEEVVRIIIERLKEIRMEVRIRRKRVVGDKVELDGELIMRINGVEIRVEVRIIIIIVGDKVKFIEITIH | 0.83 |
| DHEEEKLKESLDRLEDINRTGDWHKIHDMLDPHVRVLVNGRKHHGRETATHIYREWRITDIQFKDIRLIGDKVHIHMESRVSVNGREHSVKSELILIKVDGQWYMHAEQFL | 1.05 |
| DHEEELAKSMLEIWREVVWTGDEDSLQKLLDPDARYHLVVDGKRVERIGMEHIRKELHRLFREWRIEDMHIHEIRVVDGVAHTRTRLVVNIDGRIVDTETVINVVSFDGRVRSVTVDIR | 1.25 |
| DHEEEQVRLAFEIFKTLQETGDEELLHHFFDPNARSDVDGREVVGRHAVEEWQRDLGVDHIHVHKFTFIDGRVEMHFTYTQGDKVIKVHIYVHKVDGKWDMHRIHVR | 1.24 |
| DHEEHLSHIALRESMEYLETGDPRKYTELMDPNVKLRVDINGKQIEFHGREEASRFMEHVQHEIKGARIETHSEDTQGNKIHMDLKLLINGKESKLIIIALKINGRWLVTSMEVHVK | 1.88 |

From the NTF2 design screens of Basanta et al. (2020)
